{"source": "paper PMC12012969", "key": {"[1]": {"molecular_target": "KslB, bacterial Pictet–Spenglerase from Kitasatospora setae (Kitasatospora setae)", "test": "crystal structure"}, "[2]": {"molecular_target": "KslB, bacterial Pictet–Spenglerase from Kitasatospora setae (Kitasatospora setae)", "test": "SEC"}}}
{"substance": "KslB, bacterial Pictet–Spenglerase from Kitasatospora setae (enzyme)", "values": [{"measurement": "stoichiometry N", "setting": "[1]", "value": 2}, {"measurement": "stoichiometry N", "setting": "[2]", "value": 2}]}
